From patent US20110159022A1, “Immunogenic Peptides Derived from the Midkine Protein, as an Anticancer Vaccine” (priority 2008, published 2011)
Where no end group is shown, it is not given here.

Target: T1, HLA-DR13 (DRB1*1301) (human)
T1 chain 1: not shown
T1 chain 2: not shown
Test: competition ELISA, nonbiotinylated reference peptide against its biotinylated tracer

IC50: 39 nM
B1: B1 21-36 (nonbiotinylated reference peptide) (peptide)
peptide: TERVRLVTRHIYNREE
modifications: not fully specified
